Series [1] concerns the target T1, hnRNP A2* (hnRNP A2 isoform lacking exons 7-9) (Rattus norvegicus). Kind of series: EMSA; per text. The conditions noted are these: tags: His6 (pET-28b, E. coli BL21(DE3)); label: 5' 32P. On the procedure:
(§1) 80 nM oligonucleotides having 5′ ends labeled with [γ-³²P] ATP (³²P-labeled oligonucleotides) were incubated with 400 nM recombinant hnRNP A2* at 4° C. for 30 min in a binding buffer [10 mM Tris(hydroxymethyl)metyl aminomethane (Tris) (pH 8.0), 1 mM ethylenediaminetetraacetic acid (EDTA), and 150 mM KCl] and resolved on a 8% (wt/vol) native PAGE gel. The gel was then visualized by phosphoimaging using a Typhoon PhosphorImager.
(§2) The cDNA encoding hnRNP A2* was cloned and expressed in Escherichia coli, producing a recombinant protein with the expected molecular mass (FIG. 2A). The exons 7-9 coded the glycine-rich domain (GRD) and provided additional DNA/RNA binding sites in addition to two RNA recognition sites (RRM). […] This is in contrast to hnRNP which has a broad DNA-binding specificity with the consensus sequence N(A,C,T)(C,T)(A,G)G(C,G,T)(A,T)NNN. […] The binding specificity of hnRNP A2* was further verified by constructing 10 mutant variants of the MBS, each carrying a single mutation to cytosine at each nucleotide. All the mutations within the MBS abolished the bindings except the mutations of thymines in the vicinity of GGG (FIG. 2E).

Series [2] concerns the target T1, hnRNP A2* (hnRNP A2 isoform lacking …). Nature of the series: EMSA; G-quadruplex substrate complex; stimulates telomerase. The settings on record: tags: His6 (pET-28b, E. coli BL21(DE3)); G4. The protocol: as §1
Series [3] shares this target. Kind of series: competition; very low or no binding. The conditions noted are these: tags: His6 (pET-28b, E. coli BL21(DE3)). On the procedure:
as §1, §2

Series [4] addresses 28-kDa telomeric DNA-binding protein (hnRNP A2*), rat liver nuclear matrix (Rattus norvegicus). Kind of series: Southwestern blot. The settings on record: label: 5' 32P.
Series [5] concerns the target T1, hnRNP A2* (hnRNP A2 isoform lacking …). Kind of series: EMSA; 10 mM Tris pH 8.0, 1 mM EDTA, 150 mM KCl, 4 C; 400 nM protein, 80 nM DNA. The conditions noted are these: tags: His6 (pET-28b, E. coli BL21(DE3)); label: 5' 32P. On the procedure: as §1, §2
Series [6] shares this target. Kind of series: EMSA; minimal binding site. The conditions noted are these: tags: His6 (pET-28b, E. coli BL21(DE3)); label: 5' 32P. On the procedure:
as §1, §2

Series [7] has the same target. Kind of series: EMSA; thymine next to G-tract tolerated. The settings on record: tags: His6 (pET-28b, E. coli BL21(DE3)); label: 5' 32P. The protocol:
as §1, §2

The target is the same in series [8]. Kind of series: EMSA; per text: all MBS mutations abolish except thymines near GGG. The settings on record: tags: His6 (pET-28b, E. coli BL21(DE3)); label: 5' 32P. The protocol: as §1, §2
The target is the same in series [9]. Kind of series: EMSA; 150 mM KCl, 4 C. The settings on record: tags: His6 (pET-28b, E. coli BL21(DE3)); label: 5' 32P. On the procedure: as §1, §2

T1 sequence (chain, as listed by the source): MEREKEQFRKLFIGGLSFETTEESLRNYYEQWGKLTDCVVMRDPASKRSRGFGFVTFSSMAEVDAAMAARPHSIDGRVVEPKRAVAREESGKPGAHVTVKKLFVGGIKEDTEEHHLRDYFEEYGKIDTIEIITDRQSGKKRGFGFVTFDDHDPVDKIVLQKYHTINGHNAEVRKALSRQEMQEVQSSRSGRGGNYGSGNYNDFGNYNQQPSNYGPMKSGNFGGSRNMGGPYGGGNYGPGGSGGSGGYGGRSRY
Sequence of 28-kDa telomeric DNA-binding protein (hnRNP A2*), rat liver nuclear matrix (Rattus norvegicus) (chain, as listed by the source): as above

As for TAGGCTTAGGGTTAG (ssDNA, [none]) [15-mer G5C], the binding result in series [1] is reported as “no binding”. For GGGCTAGGGCTAGGGCTAGGGAGTT (structured_DNA) [TSG4], the binding result in series [2] is “binds”. Turning to TAGGGTTACGGTTAG (ssDNA, [none]) [15-mer G9C], the binding result in [1] was “no binding”. In the case of TTAGAGTTAGAGTTAGAG (ssDNA) [(TTAGAG)3], the binding result in series [3] is recorded as “no binding”. As for TTAGGGTTAGGGTTAGGG (ssDNA) [(TTAGGG)3], the binding result in series [4] and in series [5] was “binds” in each case. With TAGCGTTAGGGTTAG (ssDNA, [none]) [15-mer G4C], in [1], the binding result is recorded as “no binding”. On the same count and under the same terms, as for TAGGGTTCGGGTTAG (ssDNA, [none]) [15-mer A8C], the entry is “no binding”. For TAGGGTTAGG (ssDNA) [MBS], the binding result in series [6] is given as “binds”.

B1: double-stranded (TTAGGG)3 (dsDNA)
DNA 1: TTAGGGTTAGGGTTAGGG
DNA 2: CCCTAACCCTAACCCTAA
For the molecule B1, the binding result in series [3] was “no binding”. As for TAGGGCTAGGGTTAG (ssDNA, [none]) [15-mer T6C], the binding result in series [7] is listed as “binds”. Take TTGGGGTTGGGGTTGGGG (ssDNA) [(TTGGGG)3]: the binding result in series [3] was “no binding”. TAAGGGTAAGGGTAAGGG (ssDNA) [(TAAGGG)3]: the binding result in series [3] is reported as “no binding”. As to TAGGGTTAGCGTTAG (ssDNA, [none]) [15-mer G10C], the binding result in series [1] was “no binding”. For TCGGGTTAGGGTTAG (ssDNA, [none]) [15-mer A2C], the binding result in [8] is on record as “no binding”.

With TAGGGTTAGGGTTAG (ssDNA) [MBS-containing 15-mer W], in series [9], the binding result was “binds”. TACGGTTAGGGTTAG (ssDNA, [none]) [15-mer G3C]: in series [1], the binding result is on record as “no binding”.

The values above are taken from patent publication US20150307569, “HETEROGENEOUS NUCLEAR RIBONUCLEOPROTEIN A2* (HNRNP A2*) AND NUCLEIC ACID ENCODING THE SAME” (Institute of Zoology, Chinese Academy of Sciences, published 2015).
